Data: US20240400686A1

Target: Human CD3εδ (human) (UniProt P07766)
Assay: SPR, sensorgrams at 10-300 nM; set-up not given

Kd: 49 nM
koff: 0.015 s⁻¹
kon: 300000 M⁻¹ s⁻¹
B1: humanized 26H8 Fab (Fab, V domains shown)
VH: QVQLQESGPGLVKPSETLSLTCTASGYTFTNYYIHWVRQSPGKGLEWIGWIYCGDGSTKFNEQFKDRTTLSADHSKTQASLKLSSVTAADTAIYFCARDWAGSYFFDFWGQGTMVTVSS
VL: DIQMTQSPSSLSASVGDRVTITCKSSQSLLNSRTRKNYLAWYQQKPGKAPKLLIYWASTRESGVPSRFSGSGSGTDFTFTISSLQPEDIATYYCKQSYILRTFGGGTKVEIKR
